Results on one molecule are retold here after PMC7834092.

The assay has as its target Eno_(N-Strep), N-terminally Strep-tagged enolase encoded at its native locus (Bacillus subtilis), P37869. As to the kind of experiment: pull-down. The conditions noted are these: remark: other sources report otherwise.

Chain of Eno_(N-Strep), N-terminally Strep-tagged enolase encoded at its native locus (Bacillus subtilis), P37869 (P37869 whole entry): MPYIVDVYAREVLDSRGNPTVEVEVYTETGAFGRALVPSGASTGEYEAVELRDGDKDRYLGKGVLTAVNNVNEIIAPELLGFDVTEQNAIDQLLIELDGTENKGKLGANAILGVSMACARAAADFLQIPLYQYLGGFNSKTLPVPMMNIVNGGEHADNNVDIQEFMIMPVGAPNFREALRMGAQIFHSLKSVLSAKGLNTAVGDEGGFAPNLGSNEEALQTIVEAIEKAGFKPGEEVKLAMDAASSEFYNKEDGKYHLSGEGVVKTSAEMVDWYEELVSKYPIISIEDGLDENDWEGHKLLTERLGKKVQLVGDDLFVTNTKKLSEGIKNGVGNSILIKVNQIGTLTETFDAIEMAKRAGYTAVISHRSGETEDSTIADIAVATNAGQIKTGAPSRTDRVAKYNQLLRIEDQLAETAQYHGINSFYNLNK

B1: RNase Y (native) of B. subtilis, O31774 1-520 (enzyme)
chain: MTPIMMVLISILLILLGLVVGYFVRKTIAEAKIAGARGAAEQILEDAKRDAEALKKEALLEAKDEIHKLRIDAEQEVRERRNELQKQENRLLQKEENLDRKHEGIDKREAMLEKKDHSLNERQQHIEEMESKVDEMIRMQQSELERISSLTRDEAKQIILERVENELSHDIAIMTKETENRAKEEADKKAKNILSLALQRCAADHVAETTVSVVNLPNDEMKGRIIGREGRNIRTLETLTGIDLIIDDTPEAVILSGFDPIRRETARIALDKLVQDGRIHPARIEEMVEKSRREVDDYIREMGEQTTFEVGVHGLHPDLIKILGRLKFRTSYGQNVLKHSMEVAFLAGLMASELGEDAKLAKRAGLLHDIGKAIDHEVEGSHVEIGVELATKYKEHPVVINSIASHHGDEEPTSIIAVLVAAADALSAARPGARSETLENYIRRLEKLEEISESYEGVEKSFAIQAGREVRIMVKPDSINDLEAHRLARDIRKRIEDELDYPGHIKVTVIRETRAVEYAK
With B1, the less RNase Y co-eluted after RNase A treatment of the extract lay within 20 to 30%.
